Paper PMC7845616, “Convergent Evolution of a Promiscuous 3-Hydroxypropionyl-CoA Dehydratase/Crotonyl-CoA Hydratase in Crenarchaeota and Thaumarchaeota” (mSphere, 2021)

B1: Msed_0566 (Metallosphaera sedula DSM 5348) (protein)
chain: MDVILEKRKGYLLLTFNTGGRYNVFTTRFMIEMIDTLSEVEKIRDPHYLVIKGENGNFGAGADVKELLKANGDKEYAKVYFGHMKDLFVKMLSLNKVTIGLIEGVAYGASMELLLALDIVIAKRGTKFAAPGGKLGVFPPVLVSIGPYLLGHRTSRKLAMLGEELDTQGAINAGLIDYEVDDLEKGLLELLNRLKVMSPSAQVRMRKLILQSLIPHLEKAFDELATQVTSDEAREGISSFFSKTSPSWSSVGFS
notes: pET16b, His10-tagged, expressed in E. coli Rosetta 2 (DE3), Ni-NTA purified
B2: Msed_2001 (Metallosphaera sedula DSM 5348) (protein)
chain: MEFETIETKKEGNLFWITLNRPDKLNALNAKLLEELDRAVSQAESDPEIRVIIITGKGKAFCAGADITQFNQLTPAEAWKFSKKGREIMDKIEALSKPTIAMINGYALGGGLELALACDIRIAAEEAQLGLPEINLGIYPGYGGTQRLTRVIGKGRALEMMMTGDRIPGKDAEKYGLVNRVVPLANLEQETRKLAEKIAKKSPISLALIKEVVNRGLDSPLLSGLALESVGWGVVFSTEDKKEGVSAFLEKREPTFKGK
notes: pET16b, N-terminal His10-tag, expressed in E. coli Rosetta 2 (DE3), heat precipitation and Ni-NTA purified

What was measured:
Assay type in all cases: biochemical, Metallosphaera sedula
[1] = substrate: C=CC(=O)SCCNC(=O)CCNC(=O)[C@H](O)C(C)(C)COP(=O)(O)OP(=O)(O)OC[C@H]1O[C@@H](n2cnc3c(N)ncnc32)[C@H](O)[C@@H]1OP(=O)(O)O; experiment: UHPLC of 3-hydroxypropionyl-CoA formed; conditions: 100 mM Tris-HCl pH 7.8, 65°C
Source text: UHPLC of 3-hydroxypropionyl-CoA formed on Msed_0566

[2] = substrate: C=C(C)C(=O)SCCNC(=O)CCNC(=O)[C@H](O)C(C)(C)COP(=O)(O)OP(=O)(O)OC[C@H]1O[C@@H](n2cnc3c(N)ncnc32)[C@H](O)[C@@H]1OP(=O)(O)O; experiment: UHPLC of 3-hydroxy-2-methylpropionyl-CoA formed; conditions: 100 mM Tris-HCl pH 7.8, 65°C
Source text: UHPLC of 3-hydroxy-2-methylpropionyl-CoA formed on Msed_0566

[3] = substrate: CCCCC/C=C/C(=O)SCCNC(=O)CCNC(=O)[C@H](O)C(C)(C)COP(=O)(O)OP(=O)(O)OC[C@H]1O[C@@H](n2cnc3c(N)ncnc32)[C@H](O)[C@@H]1OP(=O)(O)O; experiment: UHPLC of 3-hydroxyoctanoyl-CoA formed; conditions: 100 mM Tris-HCl pH 7.8, 65°C
Source text: UHPLC of 3-hydroxyoctanoyl-CoA formed on Msed_0566

[4] = substrate: C/C=C/C(=O)SCCNC(=O)CCNC(=O)[C@H](O)C(C)(C)COP(=O)(O)OP(=O)(O)OC[C@H]1O[C@@H](n2cnc3c(N)ncnc32)[C@H](O)[C@@H]1OP(=O)(O)O; experiment: UHPLC of 3-hydroxybutyryl-CoA formed; conditions: 100 mM Tris-HCl pH 7.8, 65°C
Source text: UHPLC of 3-hydroxybutyryl-CoA formed on Msed_0566

[5] = substrate: CC(C)(COP(=O)(O)OP(=O)(O)OC[C@H]1O[C@@H](n2cnc3c(N)ncnc32)[C@H](O)[C@@H]1OP(=O)(O)O)[C@@H](O)C(=O)NCCC(=O)NCCSC(=O)CCO; experiment: dehydration coupled to Ccr, UHPLC; conditions: 100 mM Tris-HCl pH 7.8, 42°C, 1 mM NADPH, 50 mM NaHCO3, Ccr
Source text: (§1) dehydration coupled to Ccr, UHPLC on Msed_2001

[6] = substrate: C[C@H](O)CC(=O)SCCNC(=O)CCNC(=O)[C@H](O)C(C)(C)COP(=O)(O)OP(=O)(O)OC[C@H]1O[C@@H](n2cnc3c(N)ncnc32)[C@H](O)[C@@H]1OP(=O)(O)O; experiment: dehydration coupled to Ccr, UHPLC; conditions: 100 mM Tris-HCl pH 7.8, 42°C, 1 mM NADPH, 50 mM NaHCO3, Ccr
Source text: as §1

[7] = substrate: C=CC(=O)SCCNC(=O)CCNC(=O)[C@H](O)C(C)(C)COP(=O)(O)OP(=O)(O)OC[C@H]1O[C@@H](n2cnc3c(N)ncnc32)[C@H](O)[C@@H]1OP(=O)(O)O; experiment: UHPLC of 3-hydroxypropionyl-CoA formed; conditions: 100 mM Tris-HCl pH 7.8, 65°C; remark: listed apart in the source
Source text: UHPLC of 3-hydroxypropionyl-CoA formed on Msed_2001

[8] = substrate: CCCCC/C=C/C(=O)SCCNC(=O)CCNC(=O)[C@H](O)C(C)(C)COP(=O)(O)OP(=O)(O)OC[C@H]1O[C@@H](n2cnc3c(N)ncnc32)[C@H](O)[C@@H]1OP(=O)(O)O; experiment: UHPLC of 3-hydroxyoctanoyl-CoA formed; conditions: 100 mM Tris-HCl pH 7.8, 65°C; remark: listed apart in the source
Source text: UHPLC of 3-hydroxyoctanoyl-CoA formed on Msed_2001

[9] = substrate: C/C=C/C(=O)SCCNC(=O)CCNC(=O)[C@H](O)C(C)(C)COP(=O)(O)OP(=O)(O)OC[C@H]1O[C@@H](n2cnc3c(N)ncnc32)[C@H](O)[C@@H]1OP(=O)(O)O; experiment: UHPLC of 3-hydroxybutyryl-CoA formed; conditions: 100 mM Tris-HCl pH 7.8, 65°C; remark: listed apart in the source
Source text: UHPLC of 3-hydroxybutyryl-CoA formed on Msed_2001

| Protein | Km [1] | kcat/Km [1] | Km [2] | kcat/Km [2] | Km [3] | kcat/Km [3] | Km [4] | kcat/Km [4] | Km [5] | kcat/Km [5] | Km [6] | kcat/Km [6] | Km [7] | kcat/Km [7] | Km [8] | kcat/Km [8] | Km [9] | kcat/Km [9] |
| --- | --- | --- | --- | --- | --- | --- | --- | --- | --- | --- | --- | --- | --- | --- | --- | --- | --- | --- |
| B1 | 37 ± 2 µM | 39000 M⁻¹ s⁻¹ | 140 ± 30 µM | 2000 M⁻¹ s⁻¹ | 180 ± 60 µM | 16000 M⁻¹ s⁻¹ | 80 ± 30 µM | 19000 M⁻¹ s⁻¹ | – | – | – | – | – | – | – | – | – | – |
| B2 | – | – | – | – | – | – | – | – | 160 ± 20 µM | 3.26e+06 M⁻¹ s⁻¹ | 34 ± 4 µM | 4.38e+07 M⁻¹ s⁻¹ | 140 ± 10 µM | 9.94e+07 M⁻¹ s⁻¹ | 48 ± 5 µM | 3.94e+07 M⁻¹ s⁻¹ | 80 ± 10 µM | 3.16e+07 M⁻¹ s⁻¹ |
